Molecular target: T1, MLO-Y4 cell surface proteins (Mus musculus, UniProt P16675)
T1 construct: endogenous in cells; host or cells: MLO-Y4
T1 sequence (P16675 24-474): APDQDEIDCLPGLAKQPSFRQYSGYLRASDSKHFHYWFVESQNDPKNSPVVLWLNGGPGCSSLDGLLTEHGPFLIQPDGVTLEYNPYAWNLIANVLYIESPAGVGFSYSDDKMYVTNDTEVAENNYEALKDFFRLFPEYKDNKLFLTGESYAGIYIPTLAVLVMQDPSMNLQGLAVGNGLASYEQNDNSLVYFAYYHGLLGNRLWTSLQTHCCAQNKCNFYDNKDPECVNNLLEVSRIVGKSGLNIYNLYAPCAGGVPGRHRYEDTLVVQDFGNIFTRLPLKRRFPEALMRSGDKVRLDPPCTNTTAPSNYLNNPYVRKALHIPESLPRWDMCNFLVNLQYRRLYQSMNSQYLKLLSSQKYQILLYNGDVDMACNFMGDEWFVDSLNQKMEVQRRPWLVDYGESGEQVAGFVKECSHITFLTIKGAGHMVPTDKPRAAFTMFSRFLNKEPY
Assay: Crosslinking/co-immunoprecipitation/mass spectrometry (TMT quantitative proteomics) to identify irisin receptors
Format: binding
Details: co-precipitated protein Ctsa (PPGB_MOUSE)
Summary of the method: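 Relative protein abundance came from 6-plex TMT MS3 quantitation on an Orbitrap Fusion Lumos, after in-gel trypsin digestion of Coomassie-stained SDS-PAGE lanes. Input was a Ni-NTA pulldown (250 mM imidazole elution) of lysates from murine MLO-Y4 cells. These cells were treated on ice with His-tagged irisin or adipsin (10 nM, 20 min) in serum-free medium, then crosslinked with 1.5 mM DTSSP for 30 min.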

TMT signal-to-noise ratio: 357.95
Substance: adipsin

Reference: patent US20210063414A1, “METHODS FOR PREVENTING AND/OR TREATING BONE LOSS CONDITIONS BY MODULATING IRISIN” (Dana-Farber Cancer Institute, Inc., priority 2018, published 2021)
